In experiment [1] the target is transferrin receptor on 293F and HT29 cells (UniProt P02786). The experiment can be described thus: FACS, Ovr115-transfected 293F cells. In general terms: In flow cytometry, cells or beads pass a laser one at a time.
Experiment [2] shares this target. The experiment in a line: cell-based or functional assay.
The target is the same in experiment [3]. The experiment can be described thus: FACS, non-transfected 293F cells.
In experiment [4] the target is Full length HA-tagged Ovr115 (Met1-Leu435) expressed on transfected LMTK or 293F cells (human) (UniProt Q9NRS4). The experiment can be described thus: FACS, Ovr115-HA LMTK cells.
The target is the same in experiment [5]. The experiment in a line: FACS on Ovr115 transfected mouse LMTK cells, PE conjugate alone without MAb [panel A].
Experiment [6] shares this target. The experiment in a line: FACS, Ovr115-transfected 293F cells.

UniProt P02786, sequence (P02786 whole entry): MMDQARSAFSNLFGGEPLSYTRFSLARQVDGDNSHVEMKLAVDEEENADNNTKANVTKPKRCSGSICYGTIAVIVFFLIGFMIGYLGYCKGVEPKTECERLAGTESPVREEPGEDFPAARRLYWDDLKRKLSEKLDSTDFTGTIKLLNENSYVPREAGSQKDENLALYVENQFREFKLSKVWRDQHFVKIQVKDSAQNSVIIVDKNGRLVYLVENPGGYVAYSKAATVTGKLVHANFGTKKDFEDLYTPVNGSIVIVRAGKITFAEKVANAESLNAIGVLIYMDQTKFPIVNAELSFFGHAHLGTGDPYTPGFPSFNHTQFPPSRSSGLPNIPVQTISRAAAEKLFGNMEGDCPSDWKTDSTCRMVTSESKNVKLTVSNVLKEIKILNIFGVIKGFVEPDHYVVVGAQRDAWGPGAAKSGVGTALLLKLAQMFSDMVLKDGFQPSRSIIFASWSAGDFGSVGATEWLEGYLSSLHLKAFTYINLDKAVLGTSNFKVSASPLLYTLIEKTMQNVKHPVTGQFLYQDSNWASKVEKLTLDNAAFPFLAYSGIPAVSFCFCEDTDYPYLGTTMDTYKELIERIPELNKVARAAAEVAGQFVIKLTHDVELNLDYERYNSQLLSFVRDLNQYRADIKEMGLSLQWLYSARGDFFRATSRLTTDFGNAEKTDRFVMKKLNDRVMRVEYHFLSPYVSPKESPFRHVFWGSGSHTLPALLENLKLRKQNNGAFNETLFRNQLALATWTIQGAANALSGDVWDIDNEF

In experiment [1], 5E9C11 (antibody) displayed a % cells positive of 99.4% and an MFI of 71.1. For the same substance, in experiment [2], the Percent Growth Inhibition Compared to Wells with Medium Alone; HT29; MAb (0.08 µg/mL) + MAb Zap saporin conjugate worked out at 18%, the Percent Growth Inhibition Compared to Wells with Medium Alone; HT29; MAb (0.4 µg/mL) + MAb Zap saporin conjugate amounted to 58% and the Percent Growth Inhibition Compared to Wells with Medium Alone; HT29; MAb (2 µg/mL) + MAb Zap saporin conjugate was found to be 35%. In experiment [3], this substance showed a % cells positive of 99.8% and an MFI of 54.3.

In experiment [4], Anti-HA MAb (Covance) (antibody) returned a % cells positive of 61% and an MFI of 19.

Regarding “phycoerythrin (PE) conjugated donkey anti-mouse IgG Fc antibody”, the Mean of Fluorescence in experiment [5] was 0.57. In addition, the results for the % cells positive in experiment [4] and in experiment [6] were 0.6% and 1.7%, respectively. The MFI in experiment [4] was found to be 2.15; in experiment [6] it was 0.567.

Values taken from patent US20070104647A1.
